Source: PMC3531269

What was measured:
[1] = target: N-peptide N36 (aa 546-581 of HIV-1 HXB2 gp41 NHR) (HIV-1 HXB2) (UniProt P04578); assay: ELISA
[2] = target: HIV-1 HXB2 Env (gp120/gp41) expressed on the surface of CHO-WT cells (HIV-1 HXB2) (UniProt P04578)

Substance | IC50 [1] [nM] | IC50 of HIV-1 replication, Bal (B, R5) [2] [nM] | IC50 of HIV-1 replication, IIIB (B, X4) [2] [nM] | IC50 of HIV-1 replication, primary isolate 92TH009 (E/A, R5) [2] [nM] | IC50 of HIV-1 replication, primary isolate 92US657 (B, R5) [2] [nM] | IC50 of HIV-1 replication, primary isolate 93 MW959 (C, R5) [2] [nM] | IC90 of HIV-1 replication, Bal (B, R5) [2] [nM] | IC90 of HIV-1 replication, IIIB (B, X4) [2] [nM] | IC90 of HIV-1 replication, primary isolate 92TH009 (E/A, R5) [2] [nM] | IC90 of HIV-1 replication, primary isolate 92US657 (B, R5) [2] [nM] | IC90 of HIV-1 replication, primary isolate 93 MW959 (C, R5) [2] [nM]
2DLT (bivalent recombinant protein: D1D2 domain of CD4 linked to T1144 by a 35-mer linker) (designed binder) | 500 | 10.8 | 5.64 | 17.5 | 17.2 | 18.9 | 44.4 | 28.8 | 71.9 | 51.9 | 48.9
T1144 (C-peptide, next generation HIV fusion inhibitor) |  | 4.03 | 2.13 | 1.36 | 13.2 | 2.35 | 28.1 | 35.2 | 6.21 | 42.3 | 16.2
